According to article PMC3032389:

Target: NMDA receptor NR1-1a subunit, full length (rat)
Experiment: co-IP

Substance: C-terminal Src kinase (Csk) (from UniProt P41240 1-450) (enzyme)
- Csk co-precipitated with NR1 after PP2 (10 μM), percent of that without PP2: 48%
